Reference: publication PMC3078060 (Molecular Biology of the Cell, 2011)

Experiments:
Assay in all cases: pull-down
His6-Vps39–860Δ = biological target: T1, His6-Vps39–860Δ (S. cerevisiae, UniProt Q07468 1-860)
T1 sequence: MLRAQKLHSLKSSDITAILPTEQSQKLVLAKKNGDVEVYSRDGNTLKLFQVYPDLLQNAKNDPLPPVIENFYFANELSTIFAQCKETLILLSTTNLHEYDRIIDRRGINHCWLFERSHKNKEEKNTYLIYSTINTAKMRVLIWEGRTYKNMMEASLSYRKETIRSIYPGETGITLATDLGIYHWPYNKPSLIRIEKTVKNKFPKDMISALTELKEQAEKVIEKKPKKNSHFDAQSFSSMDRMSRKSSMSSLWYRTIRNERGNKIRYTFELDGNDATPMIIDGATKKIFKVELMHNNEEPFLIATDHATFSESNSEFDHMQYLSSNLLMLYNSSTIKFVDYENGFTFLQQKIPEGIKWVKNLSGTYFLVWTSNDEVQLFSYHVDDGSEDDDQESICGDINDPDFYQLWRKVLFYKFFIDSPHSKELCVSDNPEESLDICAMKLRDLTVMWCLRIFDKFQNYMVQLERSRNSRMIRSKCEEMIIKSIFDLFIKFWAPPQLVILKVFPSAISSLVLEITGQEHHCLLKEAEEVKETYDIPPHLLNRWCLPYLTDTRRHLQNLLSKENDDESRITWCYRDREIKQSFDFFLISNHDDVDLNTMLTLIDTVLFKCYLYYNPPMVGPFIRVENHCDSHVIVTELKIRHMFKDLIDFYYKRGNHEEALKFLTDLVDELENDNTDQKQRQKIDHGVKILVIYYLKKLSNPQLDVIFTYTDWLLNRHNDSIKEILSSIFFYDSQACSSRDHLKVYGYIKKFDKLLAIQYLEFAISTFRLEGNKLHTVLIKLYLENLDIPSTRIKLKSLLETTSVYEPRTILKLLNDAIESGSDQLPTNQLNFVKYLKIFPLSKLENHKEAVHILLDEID

His6-Vps41 = biological target: T2, His6-Vps41 (S. cerevisiae, UniProt P38959 1-992)
T2 sequence: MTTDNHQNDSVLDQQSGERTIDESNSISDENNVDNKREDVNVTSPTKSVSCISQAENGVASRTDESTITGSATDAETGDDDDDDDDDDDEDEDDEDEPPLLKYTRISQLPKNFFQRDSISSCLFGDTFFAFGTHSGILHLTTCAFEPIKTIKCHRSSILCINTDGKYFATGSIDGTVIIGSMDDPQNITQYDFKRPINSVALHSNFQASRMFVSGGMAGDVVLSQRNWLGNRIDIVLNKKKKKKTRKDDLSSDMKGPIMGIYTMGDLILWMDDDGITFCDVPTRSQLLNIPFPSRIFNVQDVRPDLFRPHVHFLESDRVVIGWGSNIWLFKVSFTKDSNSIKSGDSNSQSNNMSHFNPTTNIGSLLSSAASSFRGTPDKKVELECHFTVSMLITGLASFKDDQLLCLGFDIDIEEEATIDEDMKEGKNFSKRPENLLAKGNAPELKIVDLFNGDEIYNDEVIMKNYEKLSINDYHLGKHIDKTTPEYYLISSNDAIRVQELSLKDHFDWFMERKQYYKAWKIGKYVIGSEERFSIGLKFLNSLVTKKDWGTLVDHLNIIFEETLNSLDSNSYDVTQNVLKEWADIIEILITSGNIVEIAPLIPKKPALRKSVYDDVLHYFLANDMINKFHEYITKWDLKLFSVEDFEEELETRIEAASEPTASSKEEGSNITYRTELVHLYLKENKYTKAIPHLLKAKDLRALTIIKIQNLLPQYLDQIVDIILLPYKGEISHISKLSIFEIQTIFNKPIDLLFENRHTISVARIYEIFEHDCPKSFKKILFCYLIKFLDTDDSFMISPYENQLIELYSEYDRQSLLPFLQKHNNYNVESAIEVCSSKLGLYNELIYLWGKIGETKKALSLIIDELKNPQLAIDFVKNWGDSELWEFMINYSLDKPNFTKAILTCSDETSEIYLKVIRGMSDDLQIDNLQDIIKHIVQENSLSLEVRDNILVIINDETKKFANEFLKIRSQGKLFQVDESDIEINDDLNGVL

His6-Vps3 = biological target: T3, His6-Vps3 (S. cerevisiae, UniProt P23643 1-1011)
T3 sequence: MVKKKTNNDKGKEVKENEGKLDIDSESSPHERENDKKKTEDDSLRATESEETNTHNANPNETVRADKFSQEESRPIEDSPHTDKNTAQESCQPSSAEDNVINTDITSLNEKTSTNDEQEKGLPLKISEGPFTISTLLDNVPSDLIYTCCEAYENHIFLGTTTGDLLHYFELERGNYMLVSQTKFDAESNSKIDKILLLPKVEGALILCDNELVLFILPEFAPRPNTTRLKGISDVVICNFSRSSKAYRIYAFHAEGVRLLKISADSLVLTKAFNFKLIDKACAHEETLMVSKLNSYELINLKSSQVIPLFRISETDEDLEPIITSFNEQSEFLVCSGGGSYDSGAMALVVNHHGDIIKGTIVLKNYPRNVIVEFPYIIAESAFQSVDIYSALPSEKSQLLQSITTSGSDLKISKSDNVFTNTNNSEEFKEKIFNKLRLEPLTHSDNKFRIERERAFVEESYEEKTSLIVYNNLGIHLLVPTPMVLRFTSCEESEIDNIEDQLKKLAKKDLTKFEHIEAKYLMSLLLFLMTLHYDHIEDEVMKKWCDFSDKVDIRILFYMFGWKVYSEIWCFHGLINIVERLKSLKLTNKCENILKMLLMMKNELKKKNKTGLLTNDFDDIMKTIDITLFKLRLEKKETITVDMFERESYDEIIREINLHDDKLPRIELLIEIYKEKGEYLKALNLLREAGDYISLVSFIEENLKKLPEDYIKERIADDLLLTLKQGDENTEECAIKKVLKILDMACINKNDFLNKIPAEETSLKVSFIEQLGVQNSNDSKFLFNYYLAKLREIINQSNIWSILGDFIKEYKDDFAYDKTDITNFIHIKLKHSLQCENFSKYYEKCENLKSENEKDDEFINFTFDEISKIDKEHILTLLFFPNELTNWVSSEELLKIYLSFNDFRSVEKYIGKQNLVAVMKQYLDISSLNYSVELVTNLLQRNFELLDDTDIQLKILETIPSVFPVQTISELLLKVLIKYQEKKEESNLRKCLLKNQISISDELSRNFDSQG

Binder | binding result (His6-Vps39–860Δ) | binding result (His6-Vps41) | binding result (His6-Vps3)
GST-Ypt7 (natural protein) MSSRKKNILKVIILGDSGVGKTSLMHRYVNDKYSQQYKATIGADFLTKEVTVDGDKVATMQVWDTAGQERFQSLGVAFYRGADCCVLVYDVTNASSFENIKSWRDEFLVHANVNSPETFPFVILGNKIDAEESKKIVSEKSAQELAKSLGDIPLFLTSAKNAINVDTAFEEIARSALQQNQADTEAFEDDYNDAINIRLDGENNSCSC | binds | binds | –
GST-Vps21 (natural protein) MNTSVTSIKLVLLGEAAVGKSSIVLRFVSNDFAENKEPTIGAAFLTQRVTINEHTVKFEIWDTAGQERFASLAPMYYRNAQAALVVYDVTKPQSFIKARHWVKELHEQASKDIIIALVGNKIDMLQEGGERKVAREEGEKLAEEKGLLFFETSAKTGENVNDVFLGIGEKIPLKTAEEQNSASNERESNNQRVDLNAANDGTSANSACSC | – | – | binds
